The results in this text go back to US20060292657A1, “Phex substrates and methods using same” (priority 2003, published 2006).

Assay in all cases: Kinetic parameters for hydrolysis of internally quenched fluorogenic peptides by secPHEX
What all share (format): biochemical, human
Settings in all cases: other: 37° C., 10 mM Bis-Tris buffer pH 5.5, 150 mM NaCl

Substrate in data set [1]: N=C(N)NCCC[C@H](NC(=O)c1ccccc1N)C(=O)N[C@@H](CCCNC(=N)N)C(=O)N[C@@H](CC(=O)O)C(=O)N[C@@H](CC(=O)O)C(=O)N[C@@H](CO)C(=O)N[C@@H](CO)C(=O)N[C@@H](CCC(=O)O)C(=O)N[C@@H](CCC(N)=O)C(=O)NCCNc1ccc([N+](=O)[O-])cc1[N+](=O)[O-]
The procedure, abridged: (§1)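 Purified human recombinant secPHEX hydrolysing internally quenched fluorogenic peptides at 37° C in 10 mM Bis-Tris pH 5.5, 150 mM NaCl; fluorescence (ex 320, em 420 nm) followed continuously, <5% substrate hydrolysed, inner-filter corrected. Km and kcat by non-linear regression; kcat/Km under [S]<<Km where applicable.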

Substrate in data set [2]: CC(C)[C@H](NC(=O)[C@H](CC(=O)O)NC(=O)[C@H](Cc1ccc(O)cc1)NC(=O)CNC(=O)[C@H](CC(N)=O)NC(=O)c1ccccc1N)C(=O)N[C@@H](Cc1ccc(O)cc1)C(=O)N[C@@H](Cc1c[nH]cn1)C(=O)N[C@@H](CCC(N)=O)C(=O)NCCNc1ccc([N+](=O)[O-])cc1[N+](=O)[O-]
The method in brief:
as §1

Substrate in data set [3]: CC(C)C[C@H](NC(=O)[C@H](Cc1c[nH]cn1)NC(=O)[C@H](CC(=O)O)NC(=O)c1ccccc1N)C(=O)N[C@@H](CO)C(=O)N[C@@H](CC(=O)O)C(=O)N[C@H](C(=O)N[C@@H](CO)C(=O)N[C@H](C(=O)N[C@@H](CCC(N)=O)C(=O)NCCNc1ccc([N+](=O)[O-])cc1[N+](=O)[O-])[C@@H](C)O)[C@@H](C)O
The method in brief: as §1

Substrate in data set [4]: CC[C@H](C)[C@H](NC(=O)[C@H](CCC(=O)O)NC(=O)[C@H](CC(N)=O)NC(=O)[C@H](CC(=O)O)NC(=O)[C@H](CC(C)C)NC(=O)CNC(=O)[C@H](CCCNC(=N)N)NC(=O)c1ccccc1N)C(=O)N[C@@H](CCC(N)=O)C(=O)NCCNc1ccc([N+](=O)[O-])cc1[N+](=O)[O-]
The procedure, abridged: as §1

B1: human recombinant secPHEX (Homo sapiens) (protein)
chain: SLQAKQEYCLKPECIEAAAAILSKVNLSVDPCDNFFRFACDGWISNNPIPEDMPSYGVYPWLRHNVDLKLKELLEKSISRRRDTEAIQKAKILYSSCMNEKAIEKADAKPLLHILRHSPFRWPVLESNIGPEGVWSERKFSLLQTLATFRGQYSNSVFIRLYVSPDDKASNEHILKLDQATLSLAVREDYLDNSTEAKSYRDALYKFMVDTAVLLGANSSRAEHDMKSVLRLEIKIAEIMIPHENRTSEAMYNKMNISELSAMIPQFDWLGYIKKVIDTRLYPHLKDISPSENVVVRVPQYFKDLFRILGSERKKTIANYLVWRMVYSRIPNLSRRFQYRWLEFSRVIQGTTTLLPQWDKCVNFIESALPYVVGKMFVDVYFQEDKKEMMEELVEGVRWAFIDMLEKENEWMDAGTKRKAKEKARAVLAKVGYPEFIMNDTHVNEDLKAIKFSEADYFGNVLQTRKYLAQSDFFWLRKAVPKTEWFTNPTTVNAFYSASTNQIRFPAGELQKPFFWGTEYPRSLSYGAIGVIVGHEFTHGFDNNGRKYDKNGNLDPWWSTESEEKFKEKTKCMINQYSNYYWKKAGLNVKGKRTLGENIADNGGLREAFRAYRKWINDRRQGLEEPLLPGITFTNNQLFFLSYAHVRCNSYRPEAAREQVQIGAHSPPQFRVNGAISNFEEFQKAFNCPPNSTMNRGMDSCRLW
notes: pure soluble form of PHEX (secPHEX); made in house
As a reminder, the Km is the substrate concentration at which the rate is half of its maximum. The term kcat denotes the maximal rate divided by the concentration of active sites. In general, kcat/Km refers to the second-order rate constant that governs catalysis at low substrate concentration. For the protein B1, the Michaelis constant (Km) came out at 5.3 µM in data set [1], 9.0 µM in data set [2], 1.3 µM in data set [3] and 7.0 µM in data set [4]. Moreover, the kcat in data set [1] worked out at 0.5 s⁻¹; in data set [2] it was 0.01 s⁻¹; in data set [3], 0.1 s⁻¹; in data set [4], 0.03 s⁻¹. The kcat/Km in data set [1] was 94300 M⁻¹ s⁻¹; in data set [2], 1100 M⁻¹ s⁻¹; in data set [3], 77000 M⁻¹ s⁻¹; in data set [4], 4300 M⁻¹ s⁻¹.
